Laboratory results: article PMC8913689, “Atomic force microscopy-single-molecule force spectroscopy unveils GPCR cell surface architecture” (Communications Biology, 2022)

Biological target: the molecule itself
Assay: AFM single-molecule force spectroscopy (AFM-SMFS); living WTT-CHO cells transfected with 1 µg of HA-GPCR vector, basal state, 37 °C; anti-HA antibody on the AFM tip pulls the HA-receptor out of the membrane; unfolding distances fitted by a Gaussian mixture (BIC) and each population assigned to an oligomeric state by the receptor's theoretical length

B1: HA-angiotensin II subtype 1a receptor (receptor, UniProt P25095 1-359, looked up)
chain: MALNSSAEDGIKRIQDDCPKAGRHSYIFVMIPTLYSIIFVVGIFGNSLVVIVIYFYMKLKTVASVFLLNLALADLCFLLTLPLWAVYTAMEYRWPFGNHLCKIASASVSFNLYASVFLLTCLSIDRYLAIVHPMKSRLRRTMLVAKVTCIIIWLMAGLASLPAVIHRNVYFIENTNITVCAFHYESRNSTLPIGLGLTKNILGFLFPFLIILTSYTLIWKALKKAYEIQKNKPRNDDIFRIIMAIVLFFFFSWVPHQIFTFLDVLIQLGVIHDCKISDIVDTAMPITICIAYFNNCLNPLFYGFLGKKFKKYFLQLLKYIPPKAKSHSSLSTKMSTLSYRPSDNMSSSAKKPASCFEVE
notes: angiotensin II subtype 1a receptor, family A GPCR; theoretical contour length of the HA-tagged receptor 147 nm at 0.4 nm per amino acid; The subtype name 1a points to a rodent receptor (rat P25095 or mouse P29754, both 359 residues); 147 nm (about 368 residues) fits 359 residues plus a 9-residue HA tag; also called HA-AT1a-R; AT1a-R; source: WTT-CHO cells, transiently transfected (1 µg vector); …
stoichiometry N: 2
